Key:
[1] = biological target: T1, PDZ domain of the human MAST2 protein (human), Q6P0Q8; experiment: ITC, 298 K, MAST2-PDZ titrated with peptide
T1 chain: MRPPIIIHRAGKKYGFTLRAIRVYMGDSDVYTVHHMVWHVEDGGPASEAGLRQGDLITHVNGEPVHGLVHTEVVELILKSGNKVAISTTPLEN

[2] = biological target: T1, PDZ domain of the human MAST2 protein …

Binder SWEVHGQQTRL (modifications not checked) [454 (Neurovita 3)] has a TΔS (entropy) [1] of 1110, a n (stoechiometry) [1] of 1.01 and a ΔH (enthalpy) [1] of -8720. It also gave a gain of affinity as compared to Neurovita1 [2] of 20 fold.
